From article PMC13138344, “Embryonic stem cell factors DPPA2/4 amplify active H3K4me3–H2AK119ub chromatin domains in non-small cell lung cancer” (Genes & Development, 2026)

T1: developmental pluripotency-associated 2 (DPPA2) (human (endogenous in NCI-H661), UniProt Q7Z7J5 1-298)
T1 construct: DPPA2, human, endogenous in NCI-H661 non-small cell lung cancer cells; source: endogenous, NCI-H661 whole-cell lysate (IP-MS); endogenous, NCI-H661 double-cross-linked chromatin (RIME)
T1 sequence (looked up): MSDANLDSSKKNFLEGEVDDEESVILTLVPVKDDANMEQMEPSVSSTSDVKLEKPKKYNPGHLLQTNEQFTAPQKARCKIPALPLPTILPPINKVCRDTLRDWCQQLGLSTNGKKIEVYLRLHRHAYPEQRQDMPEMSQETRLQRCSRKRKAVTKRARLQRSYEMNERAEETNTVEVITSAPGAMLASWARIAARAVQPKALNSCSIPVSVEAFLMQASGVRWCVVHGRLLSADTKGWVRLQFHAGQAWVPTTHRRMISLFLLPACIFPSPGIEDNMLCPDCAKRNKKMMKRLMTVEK

B1: recombinant His-DPPA4 protein (natural protein, human, UniProt Q7L190 1-304, looked up)
chain: MLRGSASSTSMEKAKGKEWTSTEKSREEDQQASNQPNSIALPGTSAKRTKEKMSIKGSKVLCPKKKAEHTDNPRPQKKIPIPPLPSKLPPVNLIHRDILRAWCQQLKLSSKGQKLDAYKRLCAFAYPNQKDFPSTAKEAKIRKSLQKKLKVEKGETSLQSSETHPPEVALPPVGEPPALENSTALLEGVNTVVVTTSAPEALLASWARISARARTPEAVESPQEASGVRWCVVHGKSLPADTDGWVHLQFHAGQAWVPEKQEGRVSALFLLPASNFPPPHLEDNMLCPKCVHRNKVLIKSLQWE
notes: DPPA4, human, recombinant; The construct is named only in the EMSA legend; also called recombinant DPPA4; source: recombinant

Key:
[1] = target: T1, developmental pluripotency-associated 2 …; assay: affinity purification with mass spectrometry; IP of endogenous DPPA2 or DPPA4 from NCI-H661 whole-cell lysates, species-matched IgG IP control, label-free quantitation, n = 4 per condition; details: partners not purified
[2] = target: the molecule itself; assay: mass photometry; recombinant DPPA2 and DPPA4 in vitro, each on its own and together
[3] = target: B1; assay: as above; details: both partners purified

ratio between DPPA2 and DPPA4 (iBAQ) in the DPPA2 IP [1]	binding result [3]	Binder	binding result [2]
> 1	–	developmental pluripotency-associated 4 (DPPA4) (natural protein, human (endogenous in NCI-H661), UniProt Q7L190 1-304, looked up, DPPA4, human, endogenous in NCI-H661 non-small cell lung cancer cells; source: endogenous, NCI-H661 whole-cell lysate (IP-MS); endogenous, NCI-H661 double-cross-linked chromatin (RIME)) MLRGSASSTSMEKAKGKEWTSTEKSREEDQQASNQPNSIALPGTSAKRTKEKMSIKGSKVLCPKKKAEHTDNPRPQKKIPIPPLPSKLPPVNLIHRDILRAWCQQLKLSSKGQKLDAYKRLCAFAYPNQKDFPSTAKEAKIRKSLQKKLKVEKGETSLQSSETHPPEVALPPVGEPPALENSTALLEGVNTVVVTTSAPEALLASWARISARARTPEAVESPQEASGVRWCVVHGKSLPADTDGWVHLQFHAGQAWVPEKQEGRVSALFLLPASNFPPPHLEDNMLCPKCVHRNKVLIKSLQWE	–
–	–	B1	binds
–	binds	recombinant DPPA2-Myc/FLAG protein (natural protein, human, UniProt Q7Z7J5 1-298, looked up, DPPA2, human, recombinant; The construct is named only in the EMSA legend; source: recombinant) MSDANLDSSKKNFLEGEVDDEESVILTLVPVKDDANMEQMEPSVSSTSDVKLEKPKKYNPGHLLQTNEQFTAPQKARCKIPALPLPTILPPINKVCRDTLRDWCQQLGLSTNGKKIEVYLRLHRHAYPEQRQDMPEMSQETRLQRCSRKRKAVTKRARLQRSYEMNERAEETNTVEVITSAPGAMLASWARIAARAVQPKALNSCSIPVSVEAFLMQASGVRWCVVHGRLLSADTKGWVRLQFHAGQAWVPTTHRRMISLFLLPACIFPSPGIEDNMLCPDCAKRNKKMMKRLMTVEK	binds
